# Bridges are numbered along the chain shown (N, C = ends). [ ]: non-standard residue; d: D form. S5 = C=CCCC[C@](C)(N)C(=O)O
# T1: C-terminally 6x Histidine-tagged Beta-Catenin (aa 134-668, 59 KD) (UniProt P35222 134-668)
# T1 construct: range 134-668; Armadillo repeat region
# T1 sequence: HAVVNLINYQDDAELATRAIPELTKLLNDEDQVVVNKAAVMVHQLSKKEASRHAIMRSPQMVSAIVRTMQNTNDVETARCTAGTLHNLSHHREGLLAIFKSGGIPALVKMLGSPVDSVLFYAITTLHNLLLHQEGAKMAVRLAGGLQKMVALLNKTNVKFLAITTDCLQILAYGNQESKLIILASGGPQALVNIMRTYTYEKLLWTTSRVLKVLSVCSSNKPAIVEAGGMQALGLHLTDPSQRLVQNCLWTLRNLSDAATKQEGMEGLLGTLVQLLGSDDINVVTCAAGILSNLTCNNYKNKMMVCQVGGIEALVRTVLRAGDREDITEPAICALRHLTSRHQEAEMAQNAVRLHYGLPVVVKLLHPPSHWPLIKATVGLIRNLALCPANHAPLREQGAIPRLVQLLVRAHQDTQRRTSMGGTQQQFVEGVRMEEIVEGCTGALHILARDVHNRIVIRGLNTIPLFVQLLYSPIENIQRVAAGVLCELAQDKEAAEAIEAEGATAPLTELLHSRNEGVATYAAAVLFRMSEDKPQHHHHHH
# B1: SP38 (peptide)
# peptide: LGANDELISFADEGAQEEKSSNNSSAEADLAAVKSSLV
# modifications: not fully specified; N-terminal acetyl; C-terminal amide; $ = (S)-alpha-(2'-pentenyl)alanine at positions 11 and 15 (first crosslink) and 28 and 32 (second crosslink), each pair joined by an all-carbon crosslinker with one double bond
# B2: SP47 (peptide)
# peptide: Ac-LGANDELISF[S5]DEG[S5]QEEKSSENSSA[S5]RDL[S5]NVKSSLV-NH2
# modifications: staple 11-15, 27-31
# SMILES: CC[C@H](C)[C@H](NC(=O)[C@H](CC(C)C)NC(=O)[C@H](CCC(=O)O)NC(=O)[C@H](CC(=O)O)NC(=O)[C@H](CC(N)=O)NC(=O)[C@H](C)NC(=O)CNC(=O)[C@H](CC(C)C)NC(C)=O)C(=O)N[C@@H](CO)C(=O)N[C@@H](Cc1ccccc1)C(=O)N[C@@]1(C)CCCC=CCCC[C@@](C)(C(=O)N[C@@H](CCC(N)=O)C(=O)N[C@@H](CCC(=O)O)C(=O)N[C@@H](CCC(=O)O)C(=O)N[C@@H](CCCCN)C(=O)N[C@@H](CO)C(=O)N[C@@H](CO)C(=O)N[C@@H](CCC(=O)O)C(=O)N[C@@H](CC(N)=O)C(=O)N[C@@H](CO)C(=O)N[C@@H](CO)C(=O)N[C@@H](C)C(=O)N[C@@]2(C)CCCC=CCCC[C@@](C)(C(=O)N[C@@H](CC(N)=O)C(=O)N[C@H](C(=O)N[C@@H](CCCCN)C(=O)N[C@@H](CO)C(=O)N[C@@H](CO)C(=O)N[C@@H](CC(C)C)C(=O)N[C@H](C(N)=O)C(C)C)C(C)C)NC(=O)[C@H](CC(C)C)NC(=O)[C@H](CC(=O)O)NC(=O)[C@H](CCCNC(=N)N)NC2=O)NC(=O)CNC(=O)[C@H](CCC(=O)O)NC(=O)[C@H](CC(=O)O)NC1=O
# B3: SP48 (peptide)
# peptide: Ac-LGANDELISF[S5]DQG[S5]QEQKSSENSSA[S5]RDL[S5]NVKSSLV-NH2
# modifications: staple 11-15, 27-31
# SMILES: CC[C@H](C)[C@H](NC(=O)[C@H](CC(C)C)NC(=O)[C@H](CCC(=O)O)NC(=O)[C@H](CC(=O)O)NC(=O)[C@H](CC(N)=O)NC(=O)[C@H](C)NC(=O)CNC(=O)[C@H](CC(C)C)NC(C)=O)C(=O)N[C@@H](CO)C(=O)N[C@@H](Cc1ccccc1)C(=O)N[C@@]1(C)CCCC=CCCC[C@@](C)(C(=O)N[C@@H](CCC(N)=O)C(=O)N[C@@H](CCC(=O)O)C(=O)N[C@@H](CCC(N)=O)C(=O)N[C@@H](CCCCN)C(=O)N[C@@H](CO)C(=O)N[C@@H](CO)C(=O)N[C@@H](CCC(=O)O)C(=O)N[C@@H](CC(N)=O)C(=O)N[C@@H](CO)C(=O)N[C@@H](CO)C(=O)N[C@@H](C)C(=O)N[C@@]2(C)CCCC=CCCC[C@@](C)(C(=O)N[C@@H](CC(N)=O)C(=O)N[C@H](C(=O)N[C@@H](CCCCN)C(=O)N[C@@H](CO)C(=O)N[C@@H](CO)C(=O)N[C@@H](CC(C)C)C(=O)N[C@H](C(N)=O)C(C)C)C(C)C)NC(=O)[C@H](CC(C)C)NC(=O)[C@H](CC(=O)O)NC(=O)[C@H](CCCNC(=N)N)NC2=O)NC(=O)CNC(=O)[C@H](CCC(N)=O)NC(=O)[C@H](CC(=O)O)NC1=O
# B4: SP49 (peptide)
# peptide: Ac-LGANDELISF[S5]DEG[S5]QQQKSSENSSA[S5]RDL[S5]NVKSSLV-NH2
# modifications: staple 11-15, 27-31
# SMILES: CC[C@H](C)[C@H](NC(=O)[C@H](CC(C)C)NC(=O)[C@H](CCC(=O)O)NC(=O)[C@H](CC(=O)O)NC(=O)[C@H](CC(N)=O)NC(=O)[C@H](C)NC(=O)CNC(=O)[C@H](CC(C)C)NC(C)=O)C(=O)N[C@@H](CO)C(=O)N[C@@H](Cc1ccccc1)C(=O)N[C@@]1(C)CCCC=CCCC[C@@](C)(C(=O)N[C@@H](CCC(N)=O)C(=O)N[C@@H](CCC(N)=O)C(=O)N[C@@H](CCC(N)=O)C(=O)N[C@@H](CCCCN)C(=O)N[C@@H](CO)C(=O)N[C@@H](CO)C(=O)N[C@@H](CCC(=O)O)C(=O)N[C@@H](CC(N)=O)C(=O)N[C@@H](CO)C(=O)N[C@@H](CO)C(=O)N[C@@H](C)C(=O)N[C@@]2(C)CCCC=CCCC[C@@](C)(C(=O)N[C@@H](CC(N)=O)C(=O)N[C@H](C(=O)N[C@@H](CCCCN)C(=O)N[C@@H](CO)C(=O)N[C@@H](CO)C(=O)N[C@@H](CC(C)C)C(=O)N[C@H](C(N)=O)C(C)C)C(C)C)NC(=O)[C@H](CC(C)C)NC(=O)[C@H](CC(=O)O)NC(=O)[C@H](CCCNC(=N)N)NC2=O)NC(=O)CNC(=O)[C@H](CCC(=O)O)NC(=O)[C@H](CC(=O)O)NC1=O
# B5: SP57 (peptide)
# peptide: LGANDELISFANQGAQEEKSSNNSSAARNLADVKSSLV
# modifications: not fully specified; N-terminal acetyl; C-terminal amide; $ = (S)-alpha-(2'-pentenyl)alanine at positions 11 and 15 (first crosslink) and 27 and 31 (second crosslink), each pair joined by an all-carbon crosslinker with one double bond
# B6: SP58 (peptide)
# peptide: Ac-LGANDELLSF[S5]DEG[S5]QQEKSSENSSA[S5]RDL[S5]NVKSSLV-NH2
# modifications: staple 11-15, 27-31
# SMILES: CC(=O)N[C@@H](CC(C)C)C(=O)NCC(=O)N[C@@H](C)C(=O)N[C@@H](CC(N)=O)C(=O)N[C@@H](CC(=O)O)C(=O)N[C@@H](CCC(=O)O)C(=O)N[C@@H](CC(C)C)C(=O)N[C@@H](CC(C)C)C(=O)N[C@@H](CO)C(=O)N[C@@H](Cc1ccccc1)C(=O)N[C@@]1(C)CCCC=CCCC[C@@](C)(C(=O)N[C@@H](CCC(N)=O)C(=O)N[C@@H](CCC(N)=O)C(=O)N[C@@H](CCC(=O)O)C(=O)N[C@@H](CCCCN)C(=O)N[C@@H](CO)C(=O)N[C@@H](CO)C(=O)N[C@@H](CCC(=O)O)C(=O)N[C@@H](CC(N)=O)C(=O)N[C@@H](CO)C(=O)N[C@@H](CO)C(=O)N[C@@H](C)C(=O)N[C@@]2(C)CCCC=CCCC[C@@](C)(C(=O)N[C@@H](CC(N)=O)C(=O)N[C@H](C(=O)N[C@@H](CCCCN)C(=O)N[C@@H](CO)C(=O)N[C@@H](CO)C(=O)N[C@@H](CC(C)C)C(=O)N[C@H](C(N)=O)C(C)C)C(C)C)NC(=O)[C@H](CC(C)C)NC(=O)[C@H](CC(=O)O)NC(=O)[C@H](CCCNC(=N)N)NC2=O)NC(=O)CNC(=O)[C@H](CCC(=O)O)NC(=O)[C@H](CC(=O)O)NC1=O
# B7: SP59 (peptide)
# peptide: LGANDELISFADEGAQEEKSSNNSSAARDLAAVKSSLV
# modifications: not fully specified; N-terminal acetyl; C-terminal amide; $ = (S)-alpha-(2'-pentenyl)alanine at positions 11 and 15 (first crosslink) and 27 and 31 (second crosslink), each pair joined by an all-carbon crosslinker with one double bond
# B8: SP60 (peptide)
# peptide: Ac-LGANDELISF[S5]NQG[S5]QAAKSSNNSSA[S5]RNL[S5]AVKSSLV-NH2
# modifications: staple 11-15, 27-31
# SMILES: CC[C@H](C)[C@H](NC(=O)[C@H](CC(C)C)NC(=O)[C@H](CCC(=O)O)NC(=O)[C@H](CC(=O)O)NC(=O)[C@H](CC(N)=O)NC(=O)[C@H](C)NC(=O)CNC(=O)[C@H](CC(C)C)NC(C)=O)C(=O)N[C@@H](CO)C(=O)N[C@@H](Cc1ccccc1)C(=O)N[C@@]1(C)CCCC=CCCC[C@@](C)(C(=O)N[C@@H](CCC(N)=O)C(=O)N[C@@H](C)C(=O)N[C@@H](C)C(=O)N[C@@H](CCCCN)C(=O)N[C@@H](CO)C(=O)N[C@@H](CO)C(=O)N[C@@H](CC(N)=O)C(=O)N[C@@H](CC(N)=O)C(=O)N[C@@H](CO)C(=O)N[C@@H](CO)C(=O)N[C@@H](C)C(=O)N[C@@]2(C)CCCC=CCCC[C@@](C)(C(=O)N[C@@H](C)C(=O)N[C@H](C(=O)N[C@@H](CCCCN)C(=O)N[C@@H](CO)C(=O)N[C@@H](CO)C(=O)N[C@@H](CC(C)C)C(=O)N[C@H](C(N)=O)C(C)C)C(C)C)NC(=O)[C@H](CC(C)C)NC(=O)[C@H](CC(N)=O)NC(=O)[C@H](CCCNC(=N)N)NC2=O)NC(=O)CNC(=O)[C@H](CCC(N)=O)NC(=O)[C@H](CC(N)=O)NC1=O
# Target: T1, C-terminally 6x Histidine-tagged …
# Test: competitive fluorescence polarization, FAM-labelled linear probe as competitor, His-tagged beta-catenin 134-668
# Description: The following experiments are performed at room temperature unless otherwise noted. First, an assay buffer is prepared composed of 25 mM Tris-Hcl pH 7.5, 200 mM Sodium Chloride, and 5 mM CHAPS. Next, 1M DTT is added to assay buffer to a final concentration of 2 mM. […] Forty μl of this protein stock is added to all but six wells of a 96 well plate (which will serve as the free peptide and Blank). Test competitor peptides are diluted from 1 mM DMSO stocks to 2× working stocks in assay buffer. Further dilutions are made in assay buffer-DMSO as to maintain a constant DMSO concentration in all wells. The dilution is carried out such that the peptides have a working concentration range of 40 μM-0.7 μM (2×). As a benchmark, a linear, non-crosslinked peptide competitor is prepared as above but with a working concentration range of 13-0.7 μM. Fifty μl of the competitor 2× stocks are added to the 40 μl of protein solution previously transferred into the assay 96 well plate. Next, a 10× stock of the fluorescent probe is prepared. The probe is identical to the linear benchmark peptide except for the n-terminal conjugation of a FAM flourophore with Beta-Alanine spacer. A 1 mM DMSO stock of the probe is serially diluted to a final concentration of 25 nM (10×) and 10 μl of this stock is added to all wells except for those that will serve as the blank. The assay plate is stored in the dark and the reaction is allowed to run at room temperature for three hours. The reaction is then read on a Biotek Synergy 2 with the following settings: 100 ms delay, 40 measurements per well, with excitation filters of […], and emission filters of […]. Data is then analyzed in Graphpad Prism.
row,Binder,IC50 [nM]
1,B1,83
2,B2,176
3,B3,461
4,B4,1650
5,B5,407
6,B6,324
7,B7,300
8,B8,≥ 100000

# Source: patent US20170266254A1 (AILERON THERAPEUTICS, published 2017)
